{"source": "patent US20090300802A1", "about": "(WASHINGTON STATE UNIVERSITY RESEARCH FOUNDATION, published 2009)", "key": {"OsPEPR1 (rice)": {"biological_target": "OsPEPR1 (rice)", "assay": "cell-based or functional assay"}, "AtPEPR1 [1]": {"biological_target": "T1, AtPEPR1 (Arabidopsis thaliana, UniProt Q9SSL9 29-1123, glycosylated (about 180 kD, about 150 kD after PNGase F))", "T1 sequence": "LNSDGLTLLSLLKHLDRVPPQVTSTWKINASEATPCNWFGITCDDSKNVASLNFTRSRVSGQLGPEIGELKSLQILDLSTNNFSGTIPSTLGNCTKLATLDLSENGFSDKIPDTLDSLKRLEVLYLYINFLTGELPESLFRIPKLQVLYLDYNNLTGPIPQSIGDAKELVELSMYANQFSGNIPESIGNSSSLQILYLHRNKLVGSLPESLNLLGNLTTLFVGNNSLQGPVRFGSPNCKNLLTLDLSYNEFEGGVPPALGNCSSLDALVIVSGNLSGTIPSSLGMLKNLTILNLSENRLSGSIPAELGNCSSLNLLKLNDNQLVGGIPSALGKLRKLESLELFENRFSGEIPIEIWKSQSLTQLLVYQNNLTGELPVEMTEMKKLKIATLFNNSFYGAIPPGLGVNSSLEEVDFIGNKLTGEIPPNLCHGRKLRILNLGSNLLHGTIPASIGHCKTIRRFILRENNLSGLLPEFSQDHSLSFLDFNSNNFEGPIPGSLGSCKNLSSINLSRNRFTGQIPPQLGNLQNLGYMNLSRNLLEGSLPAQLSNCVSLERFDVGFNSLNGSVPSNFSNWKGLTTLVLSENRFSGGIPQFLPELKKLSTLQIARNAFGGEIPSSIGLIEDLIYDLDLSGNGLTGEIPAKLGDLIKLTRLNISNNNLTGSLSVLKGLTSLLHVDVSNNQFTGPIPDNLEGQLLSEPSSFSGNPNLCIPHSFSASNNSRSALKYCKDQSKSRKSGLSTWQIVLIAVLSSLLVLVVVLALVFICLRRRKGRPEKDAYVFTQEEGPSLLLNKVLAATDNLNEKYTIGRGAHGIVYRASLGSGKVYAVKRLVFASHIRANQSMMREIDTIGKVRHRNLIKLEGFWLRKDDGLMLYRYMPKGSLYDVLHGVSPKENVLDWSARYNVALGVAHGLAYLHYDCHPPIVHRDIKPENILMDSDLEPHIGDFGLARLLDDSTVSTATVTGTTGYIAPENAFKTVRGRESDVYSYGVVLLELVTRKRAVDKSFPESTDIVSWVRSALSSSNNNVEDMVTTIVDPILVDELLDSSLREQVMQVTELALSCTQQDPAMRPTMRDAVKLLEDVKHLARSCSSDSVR", "assay": "cell-based or functional assay"}, "AtPEPR1 [2]": {"biological_target": "T1, AtPEPR1", "assay": "saturation binding of radiolabeled peptide to Arabidopsis suspension cultured cells, Scatchard analysis", "source_text": "An analog of AtPep1 was synthesized with a Tyr residue attached to its N-terminus and radiolabeled with ¹²⁵I to quantify binding. The Tyr analog and mono- and di-iodo-Tyr-AtPep1 analogs were separated by HPLC, and the concentration-dependent activities of AtPep1 and these analogs where tested in the alkalinization assay. […] The mono-iodinated Tyr-AtPep1 comprised about 95% of the iodinated proteins and was employed for binding studies."}, "AtPEPR1 [3]": {"biological_target": "T1, AtPEPR1", "assay": "photoaffinity labeling (0.25 nM) of transgenic tobacco cells expressing AtPEPR1, SDS-PAGE and X-ray film", "procedure": "(§1) This wash was repeated twice. The cells were resuspended in 1 mL MS medium and irradiated with UV-B for 10 min on ice to photoactivate the azido group to effect the crosslinking. The cells were washed with 1 mL MS medium, centrifuged as above, and resuspended in 400 μL of 5% SDS. The cells were disrupted by boiling for 30 min, and the insoluble debris was removed by centrifugation at 10,000×g. […] After centrifugation at 10,000×g, the pellet was recovered and dissolved in 100 μL of Laemmli sample buffer containing 5% SDS, boiled for 10 min, and separated using 8% SDS-PAGE. The gels were dried and exposed to X-ray film for 50 hr to visualize labeled proteins. In competition assays, unlabeled AtPep1 and suramin were added to the cells and incubated for 10 min before adding ¹²⁵I-azido-Cys-AtPep1. The same procedures described above were employed to detect labeled proteins.\n(§2) For final confirmation, a photoaffinity-labeling experiment was performed using the transgenic tobacco cells. […] After separation of extracted proteins by SDS-PAGE, the labeled proteins were detected on X-ray film. […] Since no specific labeling was detected in wild type tobacco and GUS expressing cells, the proteins labeled specifically by ¹²⁵I₁-azido-Cys-AtPep1 in AtPEPR1 and AtPEPR2 expressing cells were products from the AtPEPR1 and AtPEPR2 genes."}, "AtPEPR2 [4]": {"biological_target": "T2, AtPEPR2 (Arabidopsis thaliana, UniProt Q9FZ59 27-1088)", "T2 construct": "Coding region expressed under the CaMV 35S promoter in tobacco suspension-cultured cells; also called second AtPep1 receptor; At1g17750", "T2 sequence": "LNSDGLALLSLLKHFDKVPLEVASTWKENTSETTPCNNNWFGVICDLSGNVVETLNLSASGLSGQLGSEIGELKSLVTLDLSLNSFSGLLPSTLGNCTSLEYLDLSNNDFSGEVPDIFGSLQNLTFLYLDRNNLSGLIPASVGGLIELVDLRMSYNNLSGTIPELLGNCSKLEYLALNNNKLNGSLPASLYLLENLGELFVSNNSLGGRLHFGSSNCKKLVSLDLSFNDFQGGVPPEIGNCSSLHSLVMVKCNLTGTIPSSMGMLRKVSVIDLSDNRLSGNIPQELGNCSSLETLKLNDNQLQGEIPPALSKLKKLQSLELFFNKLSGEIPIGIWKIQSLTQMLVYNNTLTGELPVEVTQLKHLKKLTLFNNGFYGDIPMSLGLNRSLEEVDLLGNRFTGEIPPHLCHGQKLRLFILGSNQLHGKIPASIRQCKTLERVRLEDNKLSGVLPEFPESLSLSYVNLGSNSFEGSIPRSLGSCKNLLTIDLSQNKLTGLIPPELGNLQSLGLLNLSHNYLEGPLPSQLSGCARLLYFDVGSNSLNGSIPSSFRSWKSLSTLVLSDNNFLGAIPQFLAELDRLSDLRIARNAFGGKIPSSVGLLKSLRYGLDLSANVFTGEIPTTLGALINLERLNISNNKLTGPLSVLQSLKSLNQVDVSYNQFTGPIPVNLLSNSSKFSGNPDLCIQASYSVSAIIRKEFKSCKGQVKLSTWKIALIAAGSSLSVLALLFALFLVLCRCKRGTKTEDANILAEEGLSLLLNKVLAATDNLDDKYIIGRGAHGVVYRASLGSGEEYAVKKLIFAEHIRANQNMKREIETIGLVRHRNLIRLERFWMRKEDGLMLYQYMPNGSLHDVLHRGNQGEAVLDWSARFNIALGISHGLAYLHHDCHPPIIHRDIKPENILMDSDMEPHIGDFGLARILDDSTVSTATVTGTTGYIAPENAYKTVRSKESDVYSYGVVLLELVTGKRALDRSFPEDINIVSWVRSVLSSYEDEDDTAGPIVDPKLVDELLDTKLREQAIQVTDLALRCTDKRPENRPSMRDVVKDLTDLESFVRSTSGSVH", "assay": "photoaffinity labeling (0.25 nM) of transgenic tobacco cells expressing AtPEPR2, SDS-PAGE and X-ray film", "procedure": "as §1, §2"}, "AtPEPR2 [5]": {"biological_target": "T2, AtPEPR2", "assay": "sub-heading of Example 9, supported by alkalinization and photoaffinity labeling of transgenic tobacco cells", "procedure": "To clarify whether AtPEPR2 binds to AtPep1, the AtPEPR2 coding region was fused to the CaMV 35S promoter and introduced into tobacco suspension-cultured cells by Agrobacterium. Tobacco cells expressing AtPEPR1 and GUS genes were also created as positive and negative controls, respectively. […] These transgenic lines were analyzed for alkalinizing activity as previously described (Pearce et al., Proc. Natl. Acad. Sci. USA 98, 12843-12847, 2001). […] The level of response to AtPep1 for the AtPEPR2-expressing cells was similar to that of AtPEPR1-expressing cells and to Arabidopsis cells (Yamaguchi et al., Proc. Natl. Acad. Sci. USA 103: 10104-10109, 2006, Huffaker et al., Proc. Natl. Acad. Sci. USA 103: 10098-10103, 2006), with a maximal change of 1-1.2 pH units and a half-maximal peptide activity of 0.25 nM.\nas §2"}}, "note": "No end group written: not given here. *: point of attachment. APDP = N-(4-[p-azidosalicylamido]butyl)-3'-(2'-pyridyldithio)propionamide, photoaffinity cross-linker coupled via disulfide to Cys, [N-]=[N+]=Nc1ccc(C(=O)NCCCCNC(=O)CCS*)c(O)c1; 125I = [125I]*"}
{"molecule": "OsPep3a (peptide)", "values": [{"measurement": "half-maximal activity, alkalinization of tobacco cells expressing OsPEPR1", "setting": "OsPEPR1 (rice)", "result": 0.25, "unit": "nM"}, {"measurement": "medium pH increase, tobacco cells expressing OsPEPR1", "setting": "OsPEPR1 (rice)", "result": 1.2, "unit": "pH unit"}]}
{"molecule": "ZmPep4a (peptide)", "values": [{"measurement": "half-maximal activity, alkalinization of tobacco cells expressing OsPEPR1", "setting": "OsPEPR1 (rice)", "result": 0.25, "unit": "nM"}, {"measurement": "medium pH increase, tobacco cells expressing OsPEPR1", "setting": "OsPEPR1 (rice)", "result": 1.2, "unit": "pH unit"}]}
{"molecule": "ITAVLRRRPRPPPYSSGRPGQNN", "note": "[AtPep6]", "values": [{"measurement": "change in medium pH of transgenic tobacco cells expressing AtPEPR1 at 2.5 nM peptide", "setting": "AtPEPR1 [1]", "result": "≤ 0.6", "unit": "pH units"}, {"measurement": "half-maximal activity, alkalinization of tobacco cells expressing AtPEPR1", "setting": "AtPEPR1 [1]", "result": 0.25, "unit": "nM"}, {"measurement": "maximal change of medium pH, tobacco cells expressing AtPEPR1", "setting": "AtPEPR1 [1]", "result": 1.2, "unit": "pH units"}]}
{"molecule": "SLNVMRKGIRKQPVSSGKRGGVN", "note": "[AtPep2]", "values": [{"measurement": "change in medium pH of transgenic tobacco cells expressing AtPEPR1 at 2.5 nM peptide", "setting": "AtPEPR1 [1]", "result": "≤ 0.6", "unit": "pH units"}, {"measurement": "half-maximal activity, alkalinization of tobacco cells expressing AtPEPR1", "setting": "AtPEPR1 [1]", "result": 0.25, "unit": "nM"}, {"measurement": "maximal change of medium pH, tobacco cells expressing AtPEPR1", "setting": "AtPEPR1 [1]", "result": 1.2, "unit": "pH units"}]}
{"molecule": "EIKARGKNKTKPTPSSGKGGKHN", "note": "[AtPep4]", "values": [{"measurement": "half-maximal activity, alkalinization of tobacco cells expressing AtPEPR1", "setting": "AtPEPR1 [1]", "result": 2.5, "unit": "nM"}]}
{"molecule": "Y(125I)ATKVKAKQRGKEKVSSGRPGQHN (also called mono-iodinated Tyr-AtPep1)", "note": "[125I1-Tyr-AtPep1]", "values": [{"measurement": "Kd", "setting": "AtPEPR1 [2]", "result": 0.25, "unit": "nM"}]}
{"molecule": "C(APDP)ATKVKAKQRGKEKVSSGRPGQHN (also: mono-iodinated with 125I, site not given here, also called 125I1-azido-Cys-AtPep1)", "note": "[125I-azido-Cys-AtPep1]", "values": [{"measurement": "binding result", "setting": "AtPEPR1 [3]", "result": "binds"}, {"measurement": "binding result", "setting": "AtPEPR2 [4]", "result": "binds"}]}
{"molecule": "GLPGKKNVLKKSRESSGKPGGTN", "note": "[AtPep5]", "values": [{"measurement": "change in medium pH of transgenic tobacco cells expressing AtPEPR1 at 2.5 nM peptide", "setting": "AtPEPR1 [1]", "result": "≤ 0.6", "unit": "pH units"}, {"measurement": "half-maximal activity, alkalinization of tobacco cells expressing AtPEPR1", "setting": "AtPEPR1 [1]", "result": 0.25, "unit": "nM"}, {"measurement": "maximal change of medium pH, tobacco cells expressing AtPEPR1", "setting": "AtPEPR1 [1]", "result": 1.2, "unit": "pH units"}]}
{"molecule": "VSGNVAARKGKQQTSSGKGGGTN", "note": "[AtPep7]", "values": [{"measurement": "half-maximal activity, alkalinization of tobacco cells expressing AtPEPR1", "setting": "AtPEPR1 [1]", "result": 2.5, "unit": "nM"}]}
{"molecule": "ATKVKAKQRGKEKVSSGRPGQHN (23 amino acid peptide, chemically synthesized, not post-translationally modified; also called Arabidopsis Peptide 1; native AtPep1)", "note": "[AtPep1]", "values": [{"measurement": "half-maximal activity, alkalinization of tobacco cells expressing AtPEPR1", "setting": "AtPEPR1 [1]", "result": 0.25, "unit": "nM"}, {"measurement": "maximal change of medium pH, tobacco cells expressing AtPEPR1", "setting": "AtPEPR1 [1]", "result": 1.2, "unit": "pH units"}, {"measurement": "binding result", "setting": "AtPEPR2 [5]", "result": "binds"}]}
